{"source": "patent US20240287172A1", "about": "(SCIRHOM, published 2024)"}
{"biological_target": "T1, hiR2-FL-S562E-T7 (human, UniProt Q6PJF5 1-856)", "T1 sequence": "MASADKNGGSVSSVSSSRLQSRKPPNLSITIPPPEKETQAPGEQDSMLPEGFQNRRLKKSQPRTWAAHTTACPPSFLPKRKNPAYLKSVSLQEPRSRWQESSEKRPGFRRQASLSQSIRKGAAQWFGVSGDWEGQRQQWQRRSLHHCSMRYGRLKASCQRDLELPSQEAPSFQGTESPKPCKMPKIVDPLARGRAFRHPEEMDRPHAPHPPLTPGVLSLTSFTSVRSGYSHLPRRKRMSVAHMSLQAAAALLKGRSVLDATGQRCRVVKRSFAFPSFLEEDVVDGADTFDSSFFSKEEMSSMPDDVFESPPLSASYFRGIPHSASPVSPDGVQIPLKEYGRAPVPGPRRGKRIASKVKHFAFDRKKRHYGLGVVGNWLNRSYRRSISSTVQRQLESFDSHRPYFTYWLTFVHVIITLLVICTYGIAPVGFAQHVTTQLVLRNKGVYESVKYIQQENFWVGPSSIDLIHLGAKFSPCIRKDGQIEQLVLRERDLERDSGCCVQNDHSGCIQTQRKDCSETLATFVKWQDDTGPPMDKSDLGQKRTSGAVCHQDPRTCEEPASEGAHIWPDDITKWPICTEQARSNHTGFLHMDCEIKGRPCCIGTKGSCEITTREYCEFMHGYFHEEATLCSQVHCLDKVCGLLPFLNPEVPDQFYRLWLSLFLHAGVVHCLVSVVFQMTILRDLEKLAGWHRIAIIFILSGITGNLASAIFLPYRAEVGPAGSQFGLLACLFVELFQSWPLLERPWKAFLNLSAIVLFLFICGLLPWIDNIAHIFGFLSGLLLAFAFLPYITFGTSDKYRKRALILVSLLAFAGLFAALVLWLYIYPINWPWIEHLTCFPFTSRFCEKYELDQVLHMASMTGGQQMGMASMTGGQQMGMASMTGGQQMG", "test": "FACS, MEF-DKO cells, 3 µg/ml", "units": {"loss of binding vs wild type": "%"}}
{"binder": "antibody 48 (antibody, V domains shown, mouse IgG, kappa light chain; also called clone #48; purified antibody 48) VH: QVQLQQSGTELVRPGTSVKVSCKASGYAFTNYLIEWVKQRPGQGLEWIGVINPGSGFTKYNEKFKGKATLTADKSSSTVYMHLSSLTSEDSAVYFCARGLYRAMDYWGQGTSVTVSS VL: DIQMTQSPASQSASLGESVTITCLASQTIATWLAWYQQKPGKSPQLLIYGATTLADGVPSRFSGGGSGTKFSFKISSLQAEDFVSYYCQQLYSTPYTFGGGTKLEIK", "loss of binding vs wild type": "≥ 30"}
{"binder": "antibody 50 (antibody, V domains shown, mouse IgG, kappa light chain; also called clone #50; purified antibody 50) VH: QVQLQQSGAELVRPGASVKVSCKASGYAFSNYLIEWVKQRPGQGLEWIGVINPGSGFTKYNEKFKGKATLTADKSSSTAYMQLSSLTSEDSAVYFCARGLYRAMDYWGQGTSVTVSS VL: DIQMTQSPASQSASLGESVTITCLASQTIGTWLAWYQQKPGKSPQLLIYAAASLADGVPSRFSGGGSGTKFSFKISSLQAEDFVNYYCQQIYSTPYTFGGGTKLEIK", "loss of binding vs wild type": "≥ 30"}
{"binder": "antibody 3 (antibody, V domains shown, mouse IgG, kappa light chain; also called clone #3; purified antibody 3) VH: QVTLKESGPGILQPSQTLSLTCSFSGFSLTTFAMGIGWVRQPSGKGLEWLAHIWWDGEKYNNPVLKSRLTISKDTSKNQVFLRIANVDTPDTATYYCARISSIYYIIDNWGQGTSVTVSS VL: DIVLTQSPATLSVTPGHSVSLSCRASQSISNNLHWYQKKSHESPRLLIKYVSQSISGIPSRFSGSGSGTDFTLSINSVETEDFGMYFCQQSYNWPLTFGAGTKLELK", "loss of binding vs wild type": "≥ 30"}
{"binder": "antibody 5 (antibody, V domains shown, mouse IgG, kappa light chain; also called clone #5; purified antibody 5) VH: QVTLKESGPGILQPSQTLSLTCSFSGFSLSTFGMGVGWIRQPSGKGLEWLAHIWWDDEKYYNSALKSRLTISKATSKNQAFLKIANVDTADTATYYCARISNYGSNYWYFNVWGTGTTVTVSS VL: QVVLTQSPALMSASPGEKVTMTCSAGSSVSCMYWYQQKPGSSPRVLIYDTSNLASGVPARFTGSGSGTSYSLTISRMEAEDAASYYCQQWNSYPLTFGAGTKLELK", "loss of binding vs wild type": "≥ 60"}
{"binder": "antibody 42 (antibody, V domains shown, mouse IgG, kappa light chain; also called clone #42; purified antibody 42) VH: QVTLKESGPGILQPSQTLSLTCSLSGFSLSTFGRGVGWIRQPSGKGLEWLAHIWWDDEKYYNPALKSRLTISKDTSKNQVFLRIANVDTADTATYYCARIQNYGSNYWYFDVWGTGTTVTVSS VL: LIVLTQSPAIMSASPGEKVTMTCGATSRISYMFWYQQKPGSSPRVLIYDTSNLASGVPVRFSGSGSGTSYSLTISRVEAEDVATYYCQQWNSYPLTFGAGTKLELK", "loss of binding vs wild type": "≥ 60"}
{"binder": "antibody 44 (antibody, V domains shown, mouse IgG, kappa light chain; also called clone #44; purified antibody 44) VH: QVTLKESGPGILQPSQTLSLTCSFSGFSLSTFGMGVGWIRQPSEKGLEWLAHIWWDDDKYYNPALKSRLTISKDTSKNQIFLKITNVDTAETATYYCSRIGNYGSNYWYFDVWGTGTTVTVSS VL: QIVLTQSPAVMSASPGEKVTMTCTASSSVYYMYWYQQTPGSSPRLLIYDTSNLASGVPVRFSGSGSGTSYSLTISRMEAEDAATYYCQQWNTYPLTFGAGTKLELK", "loss of binding vs wild type": "≥ 30"}
{"binder": "antibody 43 (antibody, V domains shown, mouse IgG, kappa light chain; also called clone #43; purified antibody 43) VH: QVALKESGPGILQPSQTLSLTCSFSGFSLSTFGMGVGWIRQSSGKGLEWLANIWWDDDKYYNPALKSRLTISKDASKNQAFLKIANVDTADTATYYCARIGNYGSNYWYFDVWGTGTTVTVSS VL: QIVLTQSPAIMSASPGERVTMTCSANSRISYMYWYQQKPGSSPRLLIYDTSNLASGVPVRFSGSGSGTSYSLTISRMEAEDAATYNCQQWSSYPLTFGAGTKLELK", "loss of binding vs wild type": "≥ 60"}
{"binder": "antibody 22 (antibody, V domains shown, mouse IgG, kappa light chain; also called clone #22; purified antibody 22) VH: QVTLKESGPGILQPSQTLSLTCSFSGFSLSTFGMGVGWIRQPSGKGLEWLAHIWWDDEKYYNSALKSRLTISKATSKNQVFLKIANVDTADTATYYCARISNYGSNYWYFNVWGTGTTVTVSS VL: QVVLTQSPALMSASPGEKVTMTCSAGSSVSYMYWYQQKPGSSPRVLIYDTSNLASGVPARFTGSGSGTSYSLTISRMEAEDAATYYCQQWNSYPLTFGAGTKLELK", "loss of binding vs wild type": "≥ 30"}
{"binder": "antibody 34 (antibody, V domains shown, mouse IgG, kappa light chain; also called clone #34; purified antibody 34) VH: QVTLKESGPGILQPSQTLSLTCSFSGFSLSTFSLGVGWIRQSSGKGLEWLAHIWWDDEKYYNPALKSRLTISKDTSKNQVFLKIANVDAADTATYYCARAYYSKSYYALDYWGQGTSVTVSS VL: DIQMTQSPSSLSASLGERVSLTCRASQEISGYLSWLQQKPDGTIKRLIYAASTLDSGVPKRFSGSRSGSDYSLAISSLESEDFADYYCLQYANFPFTFGSGTKLEIK", "loss of binding vs wild type": "≥ 60"}
